The text below walks through data of article PMC12727526, “Carbon-monoxide-driven bioethanol production operates through a tungsten-dependent catalyst” (Nature Chemical Biology, 2025).

Data set [1] addresses T1, CaAFOR (AOR1) (Clostridium autoethanogenum, UniProt A0ABM5NPY3).
T1 construct: gene CAETHG_0092
T1 sequence (A0ABM5NPY3 1-607): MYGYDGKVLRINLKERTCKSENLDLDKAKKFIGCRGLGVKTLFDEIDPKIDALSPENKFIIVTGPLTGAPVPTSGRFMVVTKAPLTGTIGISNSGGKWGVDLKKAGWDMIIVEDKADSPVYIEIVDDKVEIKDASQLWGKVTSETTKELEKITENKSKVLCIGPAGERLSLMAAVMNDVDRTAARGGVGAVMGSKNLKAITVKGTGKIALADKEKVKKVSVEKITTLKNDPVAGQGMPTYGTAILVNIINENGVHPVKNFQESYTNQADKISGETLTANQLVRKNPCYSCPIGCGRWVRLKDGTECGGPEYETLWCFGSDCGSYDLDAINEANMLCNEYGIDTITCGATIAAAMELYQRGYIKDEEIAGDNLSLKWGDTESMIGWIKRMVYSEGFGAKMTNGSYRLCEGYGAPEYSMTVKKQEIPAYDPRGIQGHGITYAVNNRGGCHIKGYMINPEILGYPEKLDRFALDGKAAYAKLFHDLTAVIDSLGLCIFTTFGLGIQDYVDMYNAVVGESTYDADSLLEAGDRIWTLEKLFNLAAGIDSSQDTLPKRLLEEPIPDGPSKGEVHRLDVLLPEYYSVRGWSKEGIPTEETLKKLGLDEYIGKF
The following applies: pH 5.5 or 6.5, 37 °C; CO-driven, ferredoxin, CODH/ACS, S. cerevisiae ADH, 0.2 mM NADH; total sodium acetate; apparent.

Substrate in data set [2]: CC=O
Put plainly: purified protein. The data set is classed as biochemical, Clostridium autoethanogenum. The following applies: pH 8.0 (50 mM Tris-HCl), 37 °C, 5 mM methyl viologen, anaerobic, enzyme reactivated by preincubation with ferredoxin, apparent.

Substrate in data set [3]: CCCC=O
In words: purified protein. The format is biochemical, Clostridium autoethanogenum. The following applies: pH 8.0 (50 mM Tris-HCl), 37 °C, 5 mM methyl viologen, anaerobic, enzyme reactivated by preincubation with ferredoxin, apparent.

Substrate in data set [4]: CCC=O
Put plainly: purified protein. The following applies: pH 8.0 (50 mM Tris-HCl), 37 °C, 5 mM methyl viologen, anaerobic, enzyme reactivated by preincubation with ferredoxin, apparent. The data set is classed as biochemical, Clostridium autoethanogenum.

Substrate in data set [5]: CC(=O)O
Put plainly: purified protein. The following applies: pH 5.5, 37 °C, CO-driven, ferredoxin, CODH/ACS, S. cerevisiae ADH, 0.2 mM NADH, concentration of protonated acid calculated from total acetate with pKa 4.76, apparent, estimated.

On to `CC(=O)O` [acetate], for which the “kM^app” value in data set [1] was “the high kM^app of CaAFOR for acetate”.

B1: CaAFOR (AOR1) (Clostridium autoethanogenum DSM 10061) (protein)
chain: T1 sequence (A0ABM5NPY3 1-607)
notes: native anaerobic purification from CO-grown cells; full length, no tag; monomer, expected mass 66,335 Da; holds [4Fe-4S] and tungstopterin
Take B1: the Km is listed as 54.40 ± 12.55 µM in data set [2], 53.47 ± 19.45 µM in data set [3], 165.51 ± 50.50 µM in data set [4] and 1.63 mM in data set [5]. For the same molecule, the kcat in data set [2] came to 4.42 ± 0.31 s⁻¹; in data set [3] it was 4.27 ± 0.48 s⁻¹; in data set [4], 10.35 ± 1.06 s⁻¹.
